B1: LINE1-full (parent)
chain: UACGUAGGUGGUUUUCCCCUGAUAGUGCUAAGGGGGCCUGGAAGUUUGGACUGGGCAGAGCUCAACACAGCGUGGCAAAGUGGCUGUGGCUAGACUGCCUCUCUGGAUUCCUCGUCACUCAGCAGGGCAUCUCUGAGAGAAAUGCC

Variants of: B1
Test: self-cleavage, relative activity (ratio to wild type); higher = more cleavage; in vitro, sequencing; the parent is a self-cleaving ribozyme

Variant | self-cleavage
UACGUAGGUGGUUUUCCCCUGAUAGUGCUAAGGGGGCCUGGAAGUCUGGACUGGGCAGAGCUCAACACAGCGUGGCAAAGUGGCUGUGGCUAGACUGCCUCUCUGGAUCCCUCGUCACUCAGCAGGGCAUCUCUGAGAGAAAUGCC [U46C U109C] | 1.41
UACGUAGGUGGUUUUCCCCUGAUAGUGCUAAGGGGGCCUGGAAGUCUGGACUGGGCAGAGCUCAACACAGCGUGGCAAAGUGGCUGAGGCUAGACUGCCUCUCUGGAUUCCUCGUCACUCAGCAGGGCAUCUCUGAGAGAAAUGCC [U46C U87A] | 0.13
UACGUAGGUGGUUUUCCCCUGAUAGUGCUAAGGGGGCCUGGAAGUCUGGACUGGGCAGAGCUCAACACAGCGUGGCAAAGUGGCUGCGGCUAGACUGCCUCUCUGGAUUCCUCGUCACUCAGCAGGGCAUCUCUGAGAGAAAUGCC [U46C U87C] | 0.43
UACGUAGGUGGUUUUCCCCUGAUAGUGCUAAGGGGGCCUGGAAGUGUGGACUGGGCAGAGCUCAACACAGCAUGGCAAAGUGGCUGUGGCUAGACUGCCUCUCUGGAUUCCUCGUCACUCAGCAGGGCAUCUCUGAGAGAAAUGCC [U46G G72A] | 1.07
UACGUAGGUGGUUUUCCCCUGAUAGUGCUAAGGGGGCCUGGAAGUGUGGACUGGGCAGAGCUCAACACAGCGUGGCAGAGUGGCUGUGGCUAGACUGCCUCUCUGGAUUCCUCGUCACUCAGCAGGGCAUCUCUGAGAGAAAUGCC [U46G A78G] | 0.6
UACGUAGGUGGUUUUCCCCUGAUAGUGCUAAGGGGGCCUGGAAGUCUGGACUGGGCAGAGCUCAACACAGCGUGGCAAAGUGGCUGUGGCUAGACUGCCUCUCUGGAUUCCUCGUCACACAGCAGGGCAUCUCUGAGAGAAAUGCC [U46C U119A] | 1.26
UACGUAGGUGGUUUUCCCCUGAUAGUGCUAAGGGGGCCUGGAAGUCUGGACUGGGCAGAGCUCAACACAGCGUGGCAAAGUGGCUGUGGCUAGACUGCCUCUCUGGAUUCCUCGUCACGCAGCAGGGCAUCUCUGAGAGAAAUGCC [U46C U119G] | 1.02
UACGUAGGUGGUUUUCCCCUGAUAGUGCUAAGGGGGCCUGGAAGUCUGGACUGGGCAGAGCUCAACACAGCGUGGCAAAGUGGCUGUGGCUAGACUGCCUCUCUGGAUUCCUCGUCACCCAGCAGGGCAUCUCUGAGAGAAAUGCC [U46C U119C] | 1.13
UACGUAGGUGGUUUUCCCCUGAUAGUGCUAAGGGGGCCUGGAAGUCUGGACUGGGCAGAGCUCAACACAGCGUGGCAAAGUGGCUGUGGCUAGACUGCCUCUCUGGAAUCCUCGUCACUCAGCAGGGCAUCUCUGAGAGAAAUGCC [U46C U108A] | 1.4
UACGUAGGUGGUUUUCCCCUGAUAGUGCUAAGGGGGCCUGGAAGUCUGGACUGGGCAGAGCUCAACACAGCGUGGCAAAGUGGCUGUGGCUAGACUGCCUCUCUGGAGUCCUCGUCACUCAGCAGGGCAUCUCUGAGAGAAAUGCC [U46C U108G] | 1.15
UACGUAGGUGGUUUUCCCCUGAUAGUGCUAAGGGGGCCUGGAAGUCUGGACUGGGCAGAGCUCAACACAGCGUGGCAAAGUGGCUGUGGCUAGACUGCCUCUCUGGACUCCUCGUCACUCAGCAGGGCAUCUCUGAGAGAAAUGCC [U46C U108C] | 1.69
UACGUAGGUGGUUUUCCCCUGAUAGUGCUAAGGGGGCCUGGAAGUCUGGACUGGGCAGAGCUCAACACAGCGUGGCAAAGUGGCUGUGGCAAGACUGCCUCUCUGGAUUCCUCGUCACUCAGCAGGGCAUCUCUGAGAGAAAUGCC [U46C U91A] | 0.53
UACGUAGGUGGUUUUCCCCUGAUAGUGCUAAGGGGGCCUGGAAGUCUGGACUGGGCAGAGCUCAACACAGCGUGGCAAAGUGGCUGUGGCUAGACUGCCUCUCUGGAUUCCACGUCACUCAGCAGGGCAUCUCUGAGAGAAAUGCC [U46C U112A] | 1.26
UACGUAGGUGGUUUUCCCCUGAUAGUGCUAAGGGGGCCUGGAAGUCUGGACUGGGCAGAGCUCAACACAGCGUGGCAAAGUGGCUGUGGCUAGACUGCCUCUCUGGAUUCCCCGUCACUCAGCAGGGCAUCUCUGAGAGAAAUGCC [U46C U112C] | 1.78
UACGUAGGUGGUUUUCCCCUGAUAGUGCUAAGGGGGCCUGGAAGUCUGGACUGGGCAGAGCUCAACACAGCGUGGCAAAGUGGCGGUGGCUAGACUGCCUCUCUGGAUUCCUCGUCACUCAGCAGGGCAUCUCUGAGAGAAAUGCC [U46C U85G] | 0.37
UACGUAGGUGGUUUUCCCCUGAUAGUGCUAAGGGGGCCUGGAAGUCUGGACUGGGCAGAGCUCAACACAGCGUGGCAAAGUGGCCGUGGCUAGACUGCCUCUCUGGAUUCCUCGUCACUCAGCAGGGCAUCUCUGAGAGAAAUGCC [U46C U85C] | 0.35
UACGUAGGUGGUUUUCCCCUGAUAGUGCUAAGGGGGCCUGGAAGUGUGGACUGGGCAGAGCUCAACACAGCGUGGCAAAGUGGCUGUGGCUAGACUGCCUCUCUGGAUUCCUCGUCGCUCAGCAGGGCAUCUCUGAGAGAAAUGCC [U46G A117G] | 2.26
UACGUAGGUGGUUUUCCCCUGAUAGUGCUAAGGGGGCCUGGAAGUGUGGACUGGGCAGAGCUCAACACAGCGUGGCAAUGUGGCUGUGGCUAGACUGCCUCUCUGGAUUCCUCGUCACUCAGCAGGGCAUCUCUGAGAGAAAUGCC [U46G A79U] | 2.15
UACGUAGGUGGUUUUCCCCUGAUAGUGCUAAGGGGGCCUGGAAGUCUGGACUGGGCAGAGCUCAACACAGCGUGGCAAAGUGGCUGUGGCUAGACUGCCUCUCCGGAUUCCUCGUCACUCAGCAGGGCAUCUCUGAGAGAAAUGCC [U46C U104C] | 1.96
UACGUAGGUGGUUUUCCCCUGAUAGUGCUAAGGGGGCCUGGAAGUCUGGACUGGGCAGAGCUCAACACAGCGUGGCAAAGCGGCUGUGGCUAGACUGCCUCUCUGGAUUCCUCGUCACUCAGCAGGGCAUCUCUGAGAGAAAUGCC [U46C U81C] | 1.46

Variant | self-cleavage
UACGUAGGUGGUUUUCCCCUGAUAGUGCUAAGGGGGCCUGGAAGUCUGGACUGGGCAGAGCUCAACACAGCGUGGCAAAGUGGCUGUGGCUAGACUGCCUCUCUGGAUUCCUCGUCACUCAGCAGGGCAUCUCAGAGAGAAAUGCC [U46C U134A] | 1.1
UACGUAGGUGGUUUUCCCCUGAUAGUGCUAAGGGGGCCUGGAAGUCUGGACUGGGCAGAGCUCAACACAGCGUGGCAAAGUGGCUGUGGCUAGACUGCCUCUCUGGAUUCCUCGUCACUCAGCAGGGCAUCUCCGAGAGAAAUGCC [U46C U134C] | 1.53
UACGUAGGUGGUUUUCCCCUGAUAGUGCUAAGGGGGCCUGGAAGUCUGGACUGGGCAGAGCUCAACACAGCGUGGCAAAGUGGCUGUGGCUAGACUGCCUCCCUGGAUUCCUCGUCACUCAGCAGGGCAUCUCUGAGAGAAAUGCC [U46C U102C] | 1.13
UACGUAGGUGGUUUUCCCCUGAUAGUGCUAAGGGGGCCUGGAAGUCUGGACUGGGCAGAGCUCAACACAGCGUGGCAAAGUGGCUGUGGCUAGACUGCCUCACUGGAUUCCUCGUCACUCAGCAGGGCAUCUCUGAGAGAAAUGCC [U46C U102A] | 1.09
UACGUAGGUGGUUUUCCCCUGAUAGUGCUAAGGGGGCCUGGAAGUCUGGACUGGGCAGAGCUCAACACAGCGUGGCAAAGUGGCUGUGGCUAGACUGCCUCUCUGGAUUCCUCGUCACUCAGCAGGGCACCUCUGAGAGAAAUGCC [U46C U130C] | 1.54
UACGUAGGUGGUUUUCCCCUGAUAGUGCUAAGGGGGCCUGGAAGUCUGGACUGGGCAGAGCUCAACACAGCGUGGCAAAGUGGCUGUGGCUAGACUGCCUCUCUGGAUUCCUCGUCACUCAGCAGGGCAACUCUGAGAGAAAUGCC [U46C U130A] | 1.68
UACGUAGGUGGUUUUCCCCUGAUAGUGCUAAGGGGGCCUGGAAGUGUGGACUGGGCAGAGCUCAACACAGCGUGGCAAAGUGGCUGUGGCUAGACUGCCUCUCUGGAUUCCUCGUCACUCAGCAGGGCAUCUCUGAGAGAGAUGCC [U46G A141G] | 1.16
UACGUAGGUGGUUUUCCCCUGAUAGUGCUAAGGGGGCCUGGAAGUCCGGACUGGGCAGAGCUCAACACAGCGUGGCAAAGUGGCUGUGGCUAGACUGCCUCUCUGGAUUCCUCGUCACUCAGCAGGGCAUCUCUGAGAGAAAUGCC [U46C U47C] | 1.95
UACGUAGGUGGUUUUCCCCUGAUAGUGCUAAGGGGGCCUGGAAGUGUGGGCUGGGCAGAGCUCAACACAGCGUGGCAAAGUGGCUGUGGCUAGACUGCCUCUCUGGAUUCCUCGUCACUCAGCAGGGCAUCUCUGAGAGAAAUGCC [U46G A50G] | 0.92
UACGUAGGUGGUUUUCCCCUGAUAGUGCUAAGGGGGCCUGGAAGUGUGGACUGGGCAGAGCUCAACACAGCGUGGCAAAGUGGCUGUGGCUAGACUGCCUCUCUGGAUUCCUCGUCACUCAGCAGGGCAUCUCUGAGAGGAAUGCC [U46G A140G] | 1.78
UACGUAGGUGGUUUUCCCCUGAUAGUGCUAAGGGGGCCUGGAAGUCUGGACUGGGCAGAGCUCAACACAGCGUGGCAAAGUGGCUGUGGCUAGACUGCCUCUCUGGAUUCCUCGACACUCAGCAGGGCAUCUCUGAGAGAAAUGCC [U46C U115A] | 1.58
UACGUAGGUGGUUUUCCCCUGAUAGUGCUAAGGGGGCCUGGAAGUCUGGACUGGGCAGAGCUCAACACAGCGUGGCAAAGUGGCUGUGGCUAGACUGCCUCUCUGGAUUCCUCGGCACUCAGCAGGGCAUCUCUGAGAGAAAUGCC [U46C U115G] | 0
UACGUAGGUGGUUUUCCCCUGAUAGUGCUAAGGGGGCCUGGAAGUGUGGACUGGGCAGAGCUCAACACAGCGUGGCAAAGUGGCUGUGGCUAGACUGCCUCUCUGGAUUCCUCGUCACUCAGCAGGGCGUCUCUGAGAGAAAUGCC [U46G A129G] | 1.93
UACGUAGGUGGUUUUCCCCUGAUAGUGCUAAGGGGGCCUGGAAGUCUGGACAGGGCAGAGCUCAACACAGCGUGGCAAAGUGGCUGUGGCUAGACUGCCUCUCUGGAUUCCUCGUCACUCAGCAGGGCAUCUCUGAGAGAAAUGCC [U46C U52A] | 1.45
UACGUAGGUGGUUUUCCCCUGAUAGUGCUAAGGGGGCCUGGAAGUCUGGACUGGGCAGAGCACAACACAGCGUGGCAAAGUGGCUGUGGCUAGACUGCCUCUCUGGAUUCCUCGUCACUCAGCAGGGCAUCUCUGAGAGAAAUGCC [U46C U62A] | 0.05
UACGUAGGUGGUUUUCCCCUGAUAGUGCUAAGGGGGCCUGGAAGUGUGGACUGGGCAGAGCUCAACACUGCGUGGCAAAGUGGCUGUGGCUAGACUGCCUCUCUGGAUUCCUCGUCACUCAGCAGGGCAUCUCUGAGAGAAAUGCC [U46G A69U] | 0.1
UACGUAGGUGGUUUUCCCCUGAUAGUGCUAAGGGGGCCUGGAAGUGUGGACUGGGCAGAGCUCAACACGGCGUGGCAAAGUGGCUGUGGCUAGACUGCCUCUCUGGAUUCCUCGUCACUCAGCAGGGCAUCUCUGAGAGAAAUGCC [U46G A69G] | 0
UACGUAGGUGGUUUUCCCCUGAUAGUGCUAAGGGGGCCUGGAAGUCUGGACUGGGCAGAGCUCAACACAGCGGGGCAAAGUGGCUGUGGCUAGACUGCCUCUCUGGAUUCCUCGUCACUCAGCAGGGCAUCUCUGAGAGAAAUGCC [U46C U73G] | 1.65
UACGUAGGUGGUUUUCCCCUGAUAGUGCUAAGGGGGCCUGGAAGUCUGGACUGGGCAGAGCUCAACACAGCGUGGCAAAGUGGCUGUGGCUAGACUGCCCCUCUGGAUUCCUCGUCACUCAGCAGGGCAUCUCUGAGAGAAAUGCC [U46C U100C] | 1.89

Reference: the RNAGym collection of RNA variant scans (doi:10.7554/elife.90254)
